Our source for the % inhibition of control enzyme activity, compound and Percentage inhibition (%) values is patent US20230212549A1, “COMPOUNDS COMPRISING A […] LIGAND AND USE THEREOF” (priority 2021, published 2023).

Assay in all cases: cell-based or functional assay
In experiment [1] the target is T1, Acetylcholinesterase (h) (human), P22303.
T1 chain: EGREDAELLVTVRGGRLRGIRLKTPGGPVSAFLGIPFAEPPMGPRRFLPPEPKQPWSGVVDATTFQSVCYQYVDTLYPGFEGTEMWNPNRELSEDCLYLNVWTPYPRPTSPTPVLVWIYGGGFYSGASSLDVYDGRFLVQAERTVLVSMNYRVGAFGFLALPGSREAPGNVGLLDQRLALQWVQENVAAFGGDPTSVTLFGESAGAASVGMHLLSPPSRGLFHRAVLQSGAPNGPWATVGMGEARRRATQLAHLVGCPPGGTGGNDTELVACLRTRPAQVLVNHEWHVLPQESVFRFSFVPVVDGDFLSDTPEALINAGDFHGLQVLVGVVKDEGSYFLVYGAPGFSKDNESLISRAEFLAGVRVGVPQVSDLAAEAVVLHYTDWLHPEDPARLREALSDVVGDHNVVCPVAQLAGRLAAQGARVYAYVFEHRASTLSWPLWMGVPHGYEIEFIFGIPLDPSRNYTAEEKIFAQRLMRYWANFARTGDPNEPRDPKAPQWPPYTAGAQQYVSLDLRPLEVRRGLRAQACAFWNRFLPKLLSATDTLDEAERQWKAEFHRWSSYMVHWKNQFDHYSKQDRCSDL

The target of experiment [2] is T2, Ubiquitin carboxyl-terminal hydrolase 5, P45974.
T2 chain: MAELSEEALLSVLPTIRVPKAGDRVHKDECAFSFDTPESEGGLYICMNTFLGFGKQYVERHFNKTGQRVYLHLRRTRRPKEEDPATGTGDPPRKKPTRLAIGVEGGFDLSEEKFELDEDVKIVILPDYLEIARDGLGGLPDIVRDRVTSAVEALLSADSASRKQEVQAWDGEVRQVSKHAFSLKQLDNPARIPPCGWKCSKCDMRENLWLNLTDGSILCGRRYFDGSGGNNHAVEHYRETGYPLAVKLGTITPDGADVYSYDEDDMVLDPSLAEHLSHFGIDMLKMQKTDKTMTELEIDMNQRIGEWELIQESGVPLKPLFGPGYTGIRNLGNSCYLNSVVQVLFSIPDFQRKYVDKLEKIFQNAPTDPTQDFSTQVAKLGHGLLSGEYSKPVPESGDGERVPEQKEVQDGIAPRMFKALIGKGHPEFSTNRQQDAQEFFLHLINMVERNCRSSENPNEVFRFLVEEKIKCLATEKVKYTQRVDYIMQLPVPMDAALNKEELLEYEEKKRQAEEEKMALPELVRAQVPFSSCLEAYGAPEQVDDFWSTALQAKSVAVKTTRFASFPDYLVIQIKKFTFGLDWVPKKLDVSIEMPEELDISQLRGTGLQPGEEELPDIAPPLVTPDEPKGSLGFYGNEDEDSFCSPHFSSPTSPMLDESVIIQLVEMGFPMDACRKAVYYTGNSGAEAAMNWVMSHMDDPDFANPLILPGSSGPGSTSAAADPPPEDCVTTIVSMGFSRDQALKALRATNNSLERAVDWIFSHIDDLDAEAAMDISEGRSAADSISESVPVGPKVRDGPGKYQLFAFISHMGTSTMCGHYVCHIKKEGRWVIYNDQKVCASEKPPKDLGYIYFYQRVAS

Experiment [3] concerns the target T3, Matrix metalloprotease 2, P08253.
T3 chain: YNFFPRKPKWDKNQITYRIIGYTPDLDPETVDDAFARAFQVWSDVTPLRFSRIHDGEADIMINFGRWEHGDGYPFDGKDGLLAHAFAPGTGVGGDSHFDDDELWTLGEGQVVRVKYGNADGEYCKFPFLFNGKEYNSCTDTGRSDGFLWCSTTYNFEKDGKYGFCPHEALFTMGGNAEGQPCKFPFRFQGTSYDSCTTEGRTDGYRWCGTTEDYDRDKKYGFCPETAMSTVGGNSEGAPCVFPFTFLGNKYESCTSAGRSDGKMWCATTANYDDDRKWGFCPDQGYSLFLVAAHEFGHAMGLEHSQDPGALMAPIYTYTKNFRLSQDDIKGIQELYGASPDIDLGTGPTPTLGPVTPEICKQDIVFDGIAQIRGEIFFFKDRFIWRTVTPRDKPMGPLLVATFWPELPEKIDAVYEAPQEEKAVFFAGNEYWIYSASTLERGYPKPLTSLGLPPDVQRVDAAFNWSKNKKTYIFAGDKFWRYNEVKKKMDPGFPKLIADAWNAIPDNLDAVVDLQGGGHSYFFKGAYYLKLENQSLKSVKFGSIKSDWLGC

The next experiment addresses T4, COX1(h) (human), P23219.
T4 chain: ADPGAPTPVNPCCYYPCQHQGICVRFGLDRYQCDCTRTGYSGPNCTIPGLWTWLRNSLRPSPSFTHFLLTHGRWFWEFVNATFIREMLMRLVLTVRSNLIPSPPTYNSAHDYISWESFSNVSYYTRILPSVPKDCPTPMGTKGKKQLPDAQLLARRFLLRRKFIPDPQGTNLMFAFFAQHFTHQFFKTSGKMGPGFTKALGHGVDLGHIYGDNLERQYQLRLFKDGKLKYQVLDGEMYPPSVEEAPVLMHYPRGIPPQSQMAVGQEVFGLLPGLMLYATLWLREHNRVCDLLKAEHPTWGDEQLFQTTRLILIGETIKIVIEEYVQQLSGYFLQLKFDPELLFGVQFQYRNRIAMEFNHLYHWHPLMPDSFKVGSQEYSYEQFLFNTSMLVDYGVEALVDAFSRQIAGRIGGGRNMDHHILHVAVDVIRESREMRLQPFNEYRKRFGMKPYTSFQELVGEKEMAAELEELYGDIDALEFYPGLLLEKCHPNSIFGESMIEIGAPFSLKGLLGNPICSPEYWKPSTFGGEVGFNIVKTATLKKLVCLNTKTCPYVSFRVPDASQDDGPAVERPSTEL

In another experiment the target is T5, Renin, P00797.
T5 chain: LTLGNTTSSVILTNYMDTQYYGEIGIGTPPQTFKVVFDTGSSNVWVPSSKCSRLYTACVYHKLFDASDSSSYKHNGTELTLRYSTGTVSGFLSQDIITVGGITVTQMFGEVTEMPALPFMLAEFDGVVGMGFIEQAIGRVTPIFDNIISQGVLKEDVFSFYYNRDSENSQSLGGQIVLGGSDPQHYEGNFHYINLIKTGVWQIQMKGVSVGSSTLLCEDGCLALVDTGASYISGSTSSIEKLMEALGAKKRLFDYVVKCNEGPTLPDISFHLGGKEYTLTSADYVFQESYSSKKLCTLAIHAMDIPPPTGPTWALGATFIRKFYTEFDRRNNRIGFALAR

Bridge positions count the residues as written; N and C are the ends.

B1: Hex-[Cys(tMeBn(DOTA-PP))-Pro-Pro-Thr-Gln-Phe-Cys]-Asp-NH2 (peptide)
peptide: Hex-CPPTQFCD-NH2
modifications: bridge 1-7; not fully specified (bridges); printed as Hex-[Cys(tMeBn(DOTA-PP))-Pro-Pro-Thr-Gln-Phe-Cys]-Asp-NH2
For B1, the % inhibition of control enzyme activity, compound at 10 µM in experiment [1] is -6%; in the experiment with COX1(h) (human), P23219, 10%. Further, the Percentage inhibition (%) at 1 µM in experiment [2] is 3%; in experiment [3], 3%; with Renin, P00797, -1%. Moreover, the Percentage inhibition (%) at 10 µM in experiment [2] came to 46%; in experiment [3] it was 3%; with Renin, P00797, 3%.

B2: Hex-[Cys(tMeBn(DOTA-AET))-Pro-Pro-Thr-Gln-Phe-Cys]-OH (peptide)
peptide: Hex-CPPTQFC-OH
modifications: bridge 1-7; not fully specified (bridges); printed as Hex-[Cys(tMeBn(DOTA-AET))-Pro-Pro-Thr-Gln-Phe-Cys]-OH
For B2, the % inhibition of control enzyme activity, compound at 10 µM in experiment [1] amounted to 1%; with COX1(h) (human), P23219, 8%. For the same molecule, the Percentage inhibition (%) at 1 µM was -4% in experiment [2]; -1% in experiment [3]; 0% in the experiment with Renin, P00797. In addition, the Percentage inhibition (%) at 10 µM was -2% in experiment [2]; -2% in experiment [3]; -1% with Renin, P00797.
